# Assay results taken from article PMC9844859, “Appia: Simpler chromatography analysis and visualization” (PLOS ONE, 2023).
# T1: Human NEDD4-2-GFP (human, UniProt Q96PU5 1-975)
# T1 construct: NEDD4-2 (E3 ubiquitin ligase NEDD4-like), human; also called NEDD4-2-GFP fusion protein; source: Sf9 cells (MOI of 5, 48 hours), purified (TALON resin, SEC)
# T1 sequence (looked up): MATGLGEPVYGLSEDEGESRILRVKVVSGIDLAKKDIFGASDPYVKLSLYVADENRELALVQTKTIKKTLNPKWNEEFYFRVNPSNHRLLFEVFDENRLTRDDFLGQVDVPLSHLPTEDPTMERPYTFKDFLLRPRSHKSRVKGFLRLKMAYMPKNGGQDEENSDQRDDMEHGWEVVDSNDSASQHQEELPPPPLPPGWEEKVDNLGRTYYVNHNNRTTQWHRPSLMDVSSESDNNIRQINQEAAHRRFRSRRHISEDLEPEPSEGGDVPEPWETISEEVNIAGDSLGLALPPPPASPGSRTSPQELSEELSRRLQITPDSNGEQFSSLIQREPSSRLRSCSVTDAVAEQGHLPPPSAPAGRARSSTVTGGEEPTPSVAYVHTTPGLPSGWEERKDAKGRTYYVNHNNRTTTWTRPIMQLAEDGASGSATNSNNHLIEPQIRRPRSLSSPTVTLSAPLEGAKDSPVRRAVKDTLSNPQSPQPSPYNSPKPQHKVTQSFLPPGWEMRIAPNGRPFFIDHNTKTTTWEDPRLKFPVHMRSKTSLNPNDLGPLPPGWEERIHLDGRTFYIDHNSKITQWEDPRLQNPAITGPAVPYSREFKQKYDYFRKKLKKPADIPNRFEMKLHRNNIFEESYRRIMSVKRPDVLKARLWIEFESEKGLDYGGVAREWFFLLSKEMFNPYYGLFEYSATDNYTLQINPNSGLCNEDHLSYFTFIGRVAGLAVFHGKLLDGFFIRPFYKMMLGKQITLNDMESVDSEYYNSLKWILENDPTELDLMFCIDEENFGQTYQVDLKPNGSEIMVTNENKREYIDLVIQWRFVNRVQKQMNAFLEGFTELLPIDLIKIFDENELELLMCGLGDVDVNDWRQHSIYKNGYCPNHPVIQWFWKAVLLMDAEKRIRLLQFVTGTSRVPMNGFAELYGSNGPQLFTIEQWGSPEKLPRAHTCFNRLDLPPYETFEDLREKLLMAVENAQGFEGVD
# B1: triheteromeric αβγ Epithelial Sodium Channel (ENaC αβγ) (complex)
# chain 1: MEGNKLEEQDSSPPQSTPGLMKGNKREEQGLGPEPAAPQQPTAEEEALIEFHRSYRELFEFFCNNTTIHGAIRLVCSQHNRMKTAFWAVLWLCTFGMMYWQFGLLFGEYFSYPVSLNINLNSDKLVFPAVTICTLNPYRYPEIKEELEELDRITEQTLFDLYKYSSFTTLVAGSRSRRDLRGTLPHPLQRLRVPPPPHGARRARSVASSLRDNNPQVDWKDWKIGFQLCNQNKSDCFYQTYSSGVDAVREWYRFHYINILSRLPETLPSLEEDTLGNFIFACRFNQVSCNQANYSHFHHPMYGNCYTFNDKNNSNLWMSSMPGINNGLSLMLRAEQNDFIPLLSTVTGARVMVHGQDEPAFMDDGGFNLRPGVETSISMRKETLDRLGGDYGDCTKNGSDVPVENLYPSKYTQQVCIHSCFQESMIKECGCAYIFYPRPQNVEYCDYRKHSSWGYCYYKLQVDFSSDHLGCFTKCRKPCSVTSYQLSAGYSRWPSVTSQEWVFQMLSRQNNYTVNNKRNGVAKVNIFFKELNYKTNSESPSVTMVTLLSNLGSQWSLWFGSSVLSVVEMAELVFDLLVIMFLMLLRRFRSRYWSPGRGGRGAQEVASTLASSPPSHFCPHPMSLSLSQPGPAPSPALTAPPPAYATLGPRPSPGGSAGASSSTCPLGGP
# chain 2: MHVKKYLLKGLHRLQKGPGYTYKELLVWYCDNTNTHGPKRIICEGPKKKAMWFLLTLLFAALVCWQWGIFIRTYLSWEVSVSLSVGFKTMDFPAVTICNASPFKYSKIKHLLKDLDELMEAVLERILAPELSHANATRNLNFSIWNHTPLVLIDERNPHHPMVLDLFGDNHNGLTSSSASEKICNAHGCKMAMRLCSLNRTQCTFRNFTSATQALTEWYILQATNIFAQVPQQELVEMSYPGEQMILACLFGAEPCNYRNFTSIFYPHYGNCYIFNWGMTEKALPSANPGTEFGLKLILDIGQEDYVPFLASTAGVRLMLHEQRSYPFIRDEGIYAMSGTETSIGVLVDKLQRMGEPYSPCTVNGSEVPVQNFYSDYNTTYSIQACLRSCFQDHMIRNCNCGHYLYPLPRGEKYCNNRDFPDWAHCYSDLQMSVAQRETCIGMCKESCNDTQYKMTISMADWPSEASEDWIFHVLSQERDQSTNITLSRKGIVKLNIYFQEFNYRTIEESAANNIVWLLSNLGGQFGFWMGGSVLCLIEFGEIIIDFVWITIIKLVALAKSLRQRRAQASYAGPPPTVAELVEAHTNFGFQPDTAPRSPNTGPYPSEQALPIPGTPPPNYDSLRLQPLDVIESDSEGDAI
# chain 3: MAPGEKIKAKIKKNLPVTGPQAPTIKELMRWYCLNTNTHGCRRIVVSRGRLRRLLWIGFTLTAVALILWQCALLVFSFYTVSVSIKVHFRKLDFPAVTICNINPYKYSTVRHLLADLEQETREALKSLYGFPESRKRREAESWNSVSEGKQPRFSHRIPLLIFDQDEKGKARDFFTGRKRKVGGSIIHKASNVMHIESKQVVGFQLCSNDTSDCATYTFSSGINAIQEWYKLHYMNIMAQVPLEKKINMSYSAEELLVTCFFDGVSCDARNFTLFHHPMHGNCYTFNNRENETILSTSMGGSEYGLQVILYINEEEYNPFLVSSTGAKVIIHRQDEYPFVEDVGTEIETAMVTSIGMHLTESFKLSEPYSQCTEDGSDVPIRNIYNAAYSLQICLHSCFQTKMVEKCGCAQYSQPLPPAANYCNYQQHPNWMYCYYQLHRAFVQEELGCQSVCKEACSFKEWTLTTSLAQWPSVVSEKWLLPVLTWDQGRQVNKKLNKTDLAKLLIFYKDLNQRSIMESPANSIEMLLSNFGGQLGLWMSCSVVCVIEIIEVFFIDFFSIIARRQWQKAKEWWAWKQAPPCPEAPRSPQGQDNPALDIDDDLPTFNSALHLPPALGTQVPGTPPPKYNTLRLERAFSNQLTDTQMLDEL
# notes: ENaC alpha subunit; ENaC beta subunit; ENaC gamma subunit; The trypsin treatment may also cut the subunits themselves; also called αβγ ENaC; source: HEK293S GnTI- cells, baculovirus, purified (GFP nanobody resin, eluted with trypsin, SEC) as described for ENaC δβγ; copies: + +
# Molecular target: T1, Human NEDD4-2-GFP
# Assay: SEC; fluorescence-detection SEC (FSEC), GFP channel; NEDD4-2-GFP held at 71.2 nM, ENaC αβγ added in equal amounts, five-fold or ten-fold excess; Superose 6 Increase 10/300; TBS (20 mM Tris pH 7.5, 200 mM NaCl) + 0.5 mM DDM
# Settings: both partners purified
binder,measurement,value
B1,percent of total NEDD4-2 bound at a 1:5 NEDD4-2:ENaC αβγ ratio,~20%
